Results reported in US20050064507.

What was measured:
[1] = test system: T1, AF15q14 peptide GFLNEPLSSKSQRRKSLKLK (SEQ ID NO:132)
T1 sequence: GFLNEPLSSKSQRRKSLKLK

[2] = test system: T2, AKAP12 peptide AGWRKKTSFRKPKED (SEQ ID NO:99)
T2 sequence: AGWRKKTSFRKPKED

[3] = test system: T3, ARHGAP6 peptide DGQKRKKSLRKKLD (SEQ ID NO:92)
T3 sequence: DGQKRKKSLRKKLD

[4] = test system: T4, CACNA1C peptide RGFLRSASLGRRASFHLE (SEQ ID NO:96)
T4 sequence: RGFLRSASLGRRASFHLE

[5] = test system: T5, CREB1 peptide EILSRRPSYRKILND (SEQ ID NO:106)
T5 sequence: EILSRRPSYRKILND

[6] = test system: T6, DGKZ peptide KKKKRASFKRKSSKKG (SEQ ID NO:77)
T6 sequence: KKKKRASFKRKSSKKG

[7] = test system: T7, EBNA1BP2 peptide KRPGKKGSNKRPGKR (SEQ ID NO:112)
T7 sequence: KRPGKKGSNKRPGKR

[8] = test system: T8, GABA A receptor beta 2 peptide ERHVAQKKSRLRRRASQLKI (SEQ ID NO:142)
T8 sequence: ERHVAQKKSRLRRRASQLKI

[9] = test system: T9, LIMK2 peptide KATTKKRTLRKNDRK (SEQ ID NO:108)
T9 sequence: KATTKKRTLRKNDRK

[10] = test system: T10, MARCKS peptide KKKKKRFSFKKSFKL (SEQ ID NO:80)
T10 sequence: KKKKKRFSFKKSFKL

[11] = test system: T11, MARCKS peptide KKKRFSFKKSFKLSGFSFKK (SEQ ID NO:111)
T11 sequence: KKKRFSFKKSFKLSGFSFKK

[12] = test system: T12, MacMARCKS peptide KKKFSFKKPFKLSGLSFKRN (SEQ ID NO:162)
T12 sequence: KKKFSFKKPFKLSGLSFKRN

[13] = test system: T13, Myt1 kinase peptide PPRTPGWHQLQPRRVSFRGE (SEQ ID NO:163)
T13 sequence: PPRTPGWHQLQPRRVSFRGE

[14] = test system: T14, NEURL peptide ALRRPSLRREADD (SEQ ID NO:105)
T14 sequence: ALRRPSLRREADD

[15] = test system: T15, NMDAR1 peptide RAITSTLASSFKRRR (SEQ ID NO:122)
T15 sequence: RAITSTLASSFKRRR

[16] = test system: T16, PARIS1 peptide RELEQLKAEYLERRASRRRA (SEQ ID NO:148)
T16 sequence: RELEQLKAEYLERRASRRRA

[17] = test system: T17, PKD1 peptide RVVQSVKHTKRKSSTVMK (SEQ ID NO:149)
T17 sequence: RVVQSVKHTKRKSSTVMK

[18] = test system: T18, PRKCA peptide RFARKGSLRQKNV (SEQ ID NO:85)
T18 sequence: RFARKGSLRQKNV

[19] = test system: T19, SMARCA5 peptide MAQIERGEARIQRRISIKKA (SEQ ID NO:166)
T19 sequence: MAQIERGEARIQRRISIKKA

[20] = test system: T20, SPTBN4 peptide EGGDRRASGRRK (SEQ ID NO:110)
T20 sequence: EGGDRRASGRRK

[21] = test system: T21, ankyrin R peptide DLIEGRKGAQIVKRASLKRG (SEQ ID NO:152)
T21 sequence: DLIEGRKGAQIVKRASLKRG

[22] = test system: T22, cytohesin-2 peptide VDPFYEMLAARKKRISVKKK (SEQ ID NO:150)
T22 sequence: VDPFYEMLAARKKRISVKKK

[23] = test system: T23, dag kinase iota peptide NRKKKRTSFKRKA (SEQ ID NO:115)
T23 sequence: NRKKKRTSFKRKA

[24] = test system: T24, dag kinase zeta peptide RPQNTLKASKKKKRASFKRK (SEQ ID NO:118)
T24 sequence: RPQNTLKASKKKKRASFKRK

[25] = test system: T25, peptide AARKKRISVKKKQEQ (SEQ ID NO:8)
T25 sequence: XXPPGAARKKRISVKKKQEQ

[26] = test system: T26, peptide AGSFKRNSIKKIV (SEQ ID NO:19)
T26 sequence: XXPPGAGSFKRNSIKKIV

[27] = test system: T27, peptide AINSRETMFHKERFK (SEQ ID NO:67)
T27 sequence: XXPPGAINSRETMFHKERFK

[28] = test system: T28, peptide ARIIGEKSFRRSVVG (SEQ ID NO:47)
T28 sequence: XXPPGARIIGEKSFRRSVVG

[29] = test system: T29, peptide AVRDMRQTVAVGVIK (SEQ ID NO:62)
T29 sequence: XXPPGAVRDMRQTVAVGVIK

[30] = test system: T30, peptide DDMEHKTLKITDFG (SEQ ID NO:55)
T30 sequence: XXPPGDDMEHKTLKITDFG

[31] = test system: T31, peptide EILSRRPSYRKILND (SEQ ID NO:25)
T31 sequence: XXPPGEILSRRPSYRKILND

[32] = test system: T32, peptide EKIKRSSLKKVDSLKK (SEQ ID NO:24)
T32 sequence: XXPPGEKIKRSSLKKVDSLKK

[33] = test system: T33, peptide ENLRRVATDRRHLGH (SEQ ID NO:50)
T33 sequence: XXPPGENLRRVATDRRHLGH

[34] = test system: T34, peptide GFAKKIGSGQKTWTF (SEQ ID NO:66)
T34 sequence: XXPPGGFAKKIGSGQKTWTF

[35] = test system: T35, peptide IKVTHKATGKVMVMK (SEQ ID NO:65)
T35 sequence: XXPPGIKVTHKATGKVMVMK

[36] = test system: T36, peptide KKKFRTPSFLKKSKK (SEQ ID NO:11)
T36 sequence: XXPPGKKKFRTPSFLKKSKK

[37] = test system: T37, peptide KKKKKRFSFKKSFKL (SEQ ID NO:12)
T37 sequence: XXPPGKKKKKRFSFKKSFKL

[38] = test system: T38, peptide KRPGKKGSNKRPGKR (SEQ ID NO:28)
T38 sequence: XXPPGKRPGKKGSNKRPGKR

[39] = test system: T39, peptide NRKKKRTSFKRKA (SEQ ID NO:3)
T39 sequence: XXPPGNRKKKRTSFKRKA

[40] = test system: T40, peptide QKKSRLRRRASQLKI (SEQ ID NO:9)
T40 sequence: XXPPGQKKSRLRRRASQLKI

[41] = test system: T41, peptide QQKIRKYTMRRLLQE (SEQ ID NO:33)
T41 sequence: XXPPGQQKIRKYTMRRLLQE

PKC-delta showed an in vitro phosphorylation, 1 uM peptide (% of best substrate) [1] of 41, an in vitro phosphorylation, 10 uM peptide (% of best substrate) [1] of 47 and an in vitro phosphorylation (% of best substrate) [2] of 17. It also gave an in vitro phosphorylation (% of best substrate) [3] of 17, an in vitro phosphorylation (% of best substrate) [4] of 18 and an in vitro phosphorylation (% of best substrate) [5] of 9. The in vitro phosphorylation (% of best substrate) [6] was 76, the in vitro phosphorylation (% of best substrate) [7] was 8 and the in vitro phosphorylation, 1 uM peptide (% of best substrate) [8] was 30. For the same substance, the in vitro phosphorylation, 10 uM peptide (% of best substrate) [8] was 36, the in vitro phosphorylation (% of best substrate) [9] was 6 and the in vitro phosphorylation (% of best substrate) [10] was 24. The in vitro phosphorylation (% of best substrate) [11] was 16, the in vitro phosphorylation, 1 uM peptide (% of best substrate) [12] was 21 and the in vitro phosphorylation, 10 uM peptide (% of best substrate) [12] was 13. For the same substance, the in vitro phosphorylation, 1 uM peptide (% of best substrate) [13] was 13, the in vitro phosphorylation, 10 uM peptide (% of best substrate) [13] was 21 and the in vitro phosphorylation (% of best substrate) [14] was 9. The in vitro phosphorylation, 1 uM peptide (% of best substrate) [15] was 55, the in vitro phosphorylation, 10 uM peptide (% of best substrate) [15] was 24 and the in vitro phosphorylation, 1 uM peptide (% of best substrate) [16] was 27. For the same substance, the in vitro phosphorylation, 10 uM peptide (% of best substrate) [16] was 14, the in vitro phosphorylation, 1 uM peptide (% of best substrate) [17] was 20 and the in vitro phosphorylation, 10 uM peptide (% of best substrate) [17] was 17. It also gave an in vitro phosphorylation (% of best substrate) [18] of 34, an in vitro phosphorylation, 1 uM peptide (% of best substrate) [19] of 13 and an in vitro phosphorylation, 10 uM peptide (% of best substrate) [19] of 29. For the same substance, the in vitro phosphorylation (% of best substrate) [20] was 5, the in vitro phosphorylation, 1 uM peptide (% of best substrate) [21] was 35 and the in vitro phosphorylation, 10 uM peptide (% of best substrate) [21] was 18. The in vitro phosphorylation, 1 uM peptide (% of best substrate) [22] was 34, the in vitro phosphorylation, 10 uM peptide (% of best substrate) [22] was 20 and the in vitro phosphorylation, 1 uM peptide (% of best substrate) [23] was 94. It also gave an in vitro phosphorylation, 10 uM peptide (% of best substrate) [23] of 99, an in vitro phosphorylation, 1 uM peptide (% of best substrate) [24] of 73 and an in vitro phosphorylation, 10 uM peptide (% of best substrate) [24] of 60. The in vitro phosphorylation (% of best substrate) [25] was 35, the in vitro phosphorylation (% of best substrate) [26] was 14 and the in vitro phosphorylation (% of best substrate) [27] was 1. The in vitro phosphorylation (% of best substrate) [28] was 2, the in vitro phosphorylation (% of best substrate) [29] was 1 and the in vitro phosphorylation (% of best substrate) [30] was 2. For the same substance, the in vitro phosphorylation (% of best substrate) [31] was 9, the in vitro phosphorylation (% of best substrate) [32] was 10 and the in vitro phosphorylation (% of best substrate) [33] was 2. The in vitro phosphorylation (% of best substrate) [34] was 1, the in vitro phosphorylation (% of best substrate) [35] was 1 and the in vitro phosphorylation (% of best substrate) [36] was 25. The in vitro phosphorylation (% of best substrate) [37] was 24, the in vitro phosphorylation (% of best substrate) [38] was 8 and the in vitro phosphorylation (% of best substrate) [39] was 66. It also gave an in vitro phosphorylation (% of best substrate) [40] of 34 and an in vitro phosphorylation (% of best substrate) [41] of over 5.
